Reference: US20090280488A1 (NATIONAL UNIVERSITY CORPORATION TOKYO MEDICAL AND DENTAL …, published 2009)

T1: normal ataxin-1 (AT1-30Q) (human, UniProt P54253 1-815)
T1 construct: mature; Polyglutamine tract of 30 glutamines; also called normal AT1; normal polyglutamine protein
T1 sequence (looked up): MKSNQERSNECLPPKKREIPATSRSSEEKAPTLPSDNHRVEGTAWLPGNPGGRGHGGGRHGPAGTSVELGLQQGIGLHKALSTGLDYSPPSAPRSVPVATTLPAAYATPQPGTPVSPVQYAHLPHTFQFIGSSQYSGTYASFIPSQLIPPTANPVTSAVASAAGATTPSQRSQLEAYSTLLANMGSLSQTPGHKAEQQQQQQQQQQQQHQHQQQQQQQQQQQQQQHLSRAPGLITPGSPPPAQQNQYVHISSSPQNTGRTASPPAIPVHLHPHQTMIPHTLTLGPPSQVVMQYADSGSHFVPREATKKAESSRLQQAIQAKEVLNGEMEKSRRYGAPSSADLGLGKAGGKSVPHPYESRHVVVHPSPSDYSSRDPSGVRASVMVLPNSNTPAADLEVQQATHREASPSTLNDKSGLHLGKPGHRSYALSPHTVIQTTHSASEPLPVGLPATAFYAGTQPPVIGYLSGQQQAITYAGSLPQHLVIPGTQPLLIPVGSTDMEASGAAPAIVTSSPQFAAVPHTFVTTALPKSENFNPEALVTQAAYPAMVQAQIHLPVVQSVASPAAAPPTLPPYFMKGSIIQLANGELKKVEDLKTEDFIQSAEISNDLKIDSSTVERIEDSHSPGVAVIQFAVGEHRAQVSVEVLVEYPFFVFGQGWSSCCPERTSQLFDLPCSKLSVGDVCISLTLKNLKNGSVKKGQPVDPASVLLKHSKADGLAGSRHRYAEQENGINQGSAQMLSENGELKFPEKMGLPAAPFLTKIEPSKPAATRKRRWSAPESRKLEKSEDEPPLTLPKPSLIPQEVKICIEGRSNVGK

B1: HMGB2-EGFP protein (rat HMGB2 expressed from pEGFP-N1-HMGB2) (other)
chain: MGKGDPNKPRGKMSSYAFFVQTCREEHKKKHPDSSVNFAEFSKKCSERWKTMSAKEKSKFEDLAKSDKARYDREMKNYVPPKGDKKGKKKDPNAPKRPPSAFFLFCSEHRPKIKSEHPGLSIGDTAKKLGEMWSEQSAKDKQPYEQKAAKLKEKYEKDIAAYRAKGKSEVGKKGPGRPTGSKKKNEPEDEEEEEEEEDDEDEEEEDEDEE
notes: Expressed in HeLa cells by transfection; precipitated from the lysate with anti-HMGB or anti-EGFP antibody; The order HMGB2 then EGFP follows from the vector pEGFP-N1; also called HMGB-EGFP protein; not shown: EGFP and linker encoded by pEGFP-N1 (Clontech)
B2: HMGB1-EGFP protein (rat HMGB1 expressed from pEGFP-N1-HMGB1) (other)
chain: MGKGDPKKPRGKMSSYAFFVQTCREEHKKKHPDASVNFSEFSKKCSERWKTMSAKEKGKFEDMAKADKARYEREMKTYIPPKGETKKKFKDPNAPKRPPSAFFLFCSEYRPKIKGEHPGLSIGDVAKKLGEMWNNTAADDKQPYEKKAAKLKEKYEKDIAAYRAKGKPDAAKKGVVKAEKSKKKKEEEDDEEDEEDEEEEEEEEDEDEEEDDDDE
notes: Expressed in HeLa cells by transfection; precipitated from the lysate with anti-HMGB or anti-EGFP antibody; The order HMGB1 then EGFP follows from the vector pEGFP-N1; HeLa cells also carry endogenous human HMGB1; also called HMGB-EGFP protein; not shown: EGFP and linker encoded by pEGFP-N1 (Clontech)

Assays:
Assay in all cases: co-immunoprecipitation from HeLa cell lysate with anti-HMGB or anti-EGFP antibody, blot with CAG53b
[1] = target: B2
Procedure: (§1) HeLa cells (1×10⁶) in a 10 cm dish were transfected with pEGFP-N1, pEGFP-N1-HMGB1 or pEGFP-N1-HMGB2 using SuperFect (invitrogen). The cells were also infected with adenoviral vectors (AxCAwt, AxCA-HMGB1, AxCA-HMGB2, AxCA-htt20Q, AxCA-htt111Q, AxCA-AT1-30Q or AxCA-AT1-82Q) in the same manner as described above. Immunoprecipitation was performed according to a known technique (Okazawa, H. et al., Neuron. 34, 701-713. (2002)). Specifically, collected HeLa cells were incubated at 4° C. in TNE buffer (10 mM Tris-HCl (pH7.8), […], 0.15M NaCl, 1 mM EDTA) for 1 hour and were then centrifuged at 17,400×g for 20 min. The supernatant was preincubated with protein G-Sepharose (Amersham Biosciences) at 4° C. for 2 hours and then centrifuged. The supernatant was incubated with anti-HMGB1 antibody (1:600, BD Biosciences), anti-HMGB2 antibody (1:600, BD Biosciences) or anti-GFP antibody (1:600, Clontech) overnight and was subsequently incubated with protein G-Sepharose for 2 hours. The protein G beads were collected by centrifugation (2,000×g) for 5 min and washed 5 times with TNE buffer. The bound proteins were eluted with a sample buffer, separated by SDS-PAGE, and blotted with CAG53b antibody (Scherzinger, E. et al., Cell. 90, 549-558. (1997)).
(§2) A plasmid pEGFP-N-1-HMGB1/2 was transfected into Hela cells and the cells were infected with an adenoviral vector designed to express normal or mutant polyglutamine protein. The cells expressed normal or mutant polyglutamine protein. The expression levels of polyglutamine protein and HMGB-EGFP protein were checked by Western blot using CAG53b antibody and anti-GFP antibody (left panel in FIG. 5). Immunoprecipitation was performed using anti-HMGB or anti-EGFP antibody. […] The pull-down assay using HeLa cells expressing polyglutamine protein indicated interaction between mutant polyglutamine protein and HMGB protein (FIG. 6).

[2] = target: B1
Procedure: as §1, §2

[3] = target: T1, normal ataxin-1 (AT1-30Q)
Procedure: as §1, §2

| binding result [1] | binding result [2] | Binder | binding result [3] |
| --- | --- | --- | --- |
| no binding | no binding | normal huntingtin (Htt20Q) (other, human, UniProt P42858 1-88, looked up, domain: exon I; Only exon I of huntingtin, with 20 glutamines; also called normal Htt; normal polyglutamine protein) MATLEKLMKAFESLKSFQQQQQQQQQQQQQQQQQQQQQPPPPPPPPPPPQLPQPPPQAQPLLPQPQPPPPPPPPPPGPAVAEEPLHRP |  |
|  |  | B1 | no binding |
|  |  | B2 | no binding |
